Measurements reported in patent publication US20090197812.

Legend:
[1] = molecular target: mutant I-κBα, the phosphorylation sites of which were modified
Human I-κBα = molecular target: T1, Human I-κBα
T1 chain: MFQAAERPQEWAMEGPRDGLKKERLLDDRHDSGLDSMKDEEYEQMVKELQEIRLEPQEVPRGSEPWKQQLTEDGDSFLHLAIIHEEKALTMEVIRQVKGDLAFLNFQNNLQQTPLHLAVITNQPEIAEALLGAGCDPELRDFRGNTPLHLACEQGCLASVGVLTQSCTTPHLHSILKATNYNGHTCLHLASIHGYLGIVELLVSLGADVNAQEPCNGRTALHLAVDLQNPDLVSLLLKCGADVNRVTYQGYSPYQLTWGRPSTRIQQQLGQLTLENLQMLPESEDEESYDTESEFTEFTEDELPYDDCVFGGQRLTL

B1: transglutaminase (guinea pig liver, Sigma) (protein)
chain: AEDLILERCDLQLEVNGRDHRTADLCRERLVLRRGQPFWLTLHFEGRGYEAGVDTLTFNAVTGPDPSEEAGTMARFSLSSAVEGGTWSASAVDQQDSTVSLLLSTPADAPIGLYRLSLEASTGYQGSSFVLGHFILLYNPRCPADAVYMDSDQERQEYVLTQQGFIYQGSAKFINGIPWNFGQFEDGILDICLMLLDTNPKFLKNAGQDCSRRSRPVYVGRVVSAMVNCNDDQGVLQGRWDNNYSDGVSPMSWIGSVDILRRWKDYGCQRVKYGQCWVFAAVACTVLRCLGIPTRVVTNFNSAHDQNSNLLIEYFRNESGEIEGNKSEMIWNFHCWVESWMTRPDLEPGYEGWQALDPTPQEKSEGTYCCGPVPVRAIKEGHLNVKYDAPFVFAEVNADVVNWIRQKDGSLRKSINHLVVGLKISTKSVGRDEREDITHTYKYPEGSEEEREAFVRANHLNKLATKEEAQEETGVAMRIRVGQNMTMGSDFDIFAYITNGTAESHECQLLLCARIVSYNGVLGPVCSTNDLLNLTLDPFSENSIPLHILYEKYGDYLTESNLIKVRGLLIEPAANSYVLAERDIYLENPEIKIRVLGEPKQNRKLIAEVSLKNPLPVPLLGCIFTVEGAGLTKDQKSVEVPDPVEAGEQAKVRVDLLPTEVGLHKLVVNFECDKLKAVKGYRNVIIGPA
With B1 the “polymerization of I-κβα on 4-12% NuPAGE” value [1] was “both the intact I-κBα and the mutant I-κBα, the phosphorylation sites of which were modified, were polymerized to high-molecular weight polymers, by transglutaminase” and the “polymerization of I-κβα on 4-12% NuPAGE” value (Human I-κBα) was “both the intact I-κBα and the mutant I-κBα, the phosphorylation sites of which were modified, were polymerized to high-molecular weight polymers, by transglutaminase”.
